Reference: patent US20040018561A1, “Peptide compounds and their use as protease substrates” (priority 2002, published 2004)

Legend:
[1] = tested on: COc1ccc2c(CC(=O)N[C@@H](CCCNC(=N)N)C(=O)N3CCC[C@H]3C(=O)N[C@@H](CC(C)C)C(=O)NCC(=O)N[C@@H](CCCCOCc3ccccc3)C(=O)N[C@@H](CNc3ccc([N+](=O)[O-])cc3[N+](=O)[O-])C(=O)N[C@@H](C)C(=O)N[C@@H](CCCNC(=N)N)C(=O)N[C@@H](CCC(=O)O)C(=O)N[C@@H](CCCNC(=N)N)C(N)=O)cc(=O)oc2c1; assay: Km and kcat/Km of substrates with MMP-3; type: biochemical; conditions: other: substrate cleavage by MMP-3
[2] = tested on: COc1ccc2c(CC(=O)N[C@@H](CCCNC(=N)N)C(=O)N3CCC[C@@H]3C(=O)N[C@@H](CC(C)C)C(=O)NCC(=O)N[C@@H](CC(C)C)C(=O)N[C@H](CNc3ccc([N+](=O)[O-])cc3[N+](=O)[O-])C(=O)N[C@@H](C)C(=O)N[C@H](CCCNC(=N)N)C(=O)N[C@@H](CCC(=O)O)C(=O)N[C@H](CCCNC(=N)N)C(N)=O)cc(=O)oc2c1; assay: Km and kcat/Km of substrates with MMP-3; type: biochemical; conditions: other: substrate cleavage by MMP-3
[3] = tested on: COc1ccc2c(CC(=O)N[C@H](CCCNC(=N)N)C(=O)N3CCC[C@H]3C(=O)N[C@@H](CC(C)C)C(=O)NCC(=O)N[C@@H](CCCCOCc3ccccc3)C(=O)N[C@@H](CNc3ccc([N+](=O)[O-])cc3[N+](=O)[O-])C(=O)N[C@@H](C)C(=O)N[C@H](CCCNC(=N)N)C(=O)N[C@H](CCC(=O)O)C(=O)N[C@H](CCCNC(=N)N)C(N)=O)cc(=O)oc2c1; assay: Km and kcat/Km of substrates with MMP-3; type: biochemical; conditions: other: substrate cleavage by MMP-3
[4] = tested on: COc1ccc2c(CC(=O)N[C@@H](CCCNC(=N)N)C(=O)N3CCC[C@H]3C(=O)N[C@@H](CC(C)C)C(=O)NCC(=O)N[C@@H](CCCCOCc3ccccc3)C(=O)N[C@@H](CNc3ccc([N+](=O)[O-])cc3[N+](=O)[O-])C(=O)N[C@@H](C)C(=O)N[C@@H](CCCNC(=N)N)C(=O)N[C@@H](CCC(=O)O)C(=O)N[C@@H](CCCNC(=N)N)C(N)=O)cc(=O)oc2c1; assay: Km and kcat/Km of substrates with MMP-8; type: biochemical; conditions: other: substrate cleavage by MMP-8
[5] = tested on: COc1ccc2c(CC(=O)N[C@H](CCCNC(=N)N)C(=O)N3CCC[C@H]3C(=O)N[C@@H](CC(C)C)C(=O)NCC(=O)N[C@@H](CCCCOc3ccccc3)C(=O)N[C@@H](CNc3ccc([N+](=O)[O-])cc3[N+](=O)[O-])C(=O)N[C@@H](C)C(=O)N[C@H](CCCNC(=N)N)C(=O)N[C@H](CCC(=O)O)C(=O)N[C@H](CCCNC(=N)N)C(N)=O)cc(=O)oc2c1; assay: Km and kcat/Km of substrates with MMP-8; type: biochemical; conditions: other: substrate cleavage by MMP-8
[6] = tested on: COc1ccc2c(CC(=O)N[C@@H](CCCNC(=N)N)C(=O)N3CCC[C@@H]3C(=O)N[C@@H](CC(C)C)C(=O)NCC(=O)N[C@@H](CC(C)C)C(=O)N[C@H](CNc3ccc([N+](=O)[O-])cc3[N+](=O)[O-])C(=O)N[C@@H](C)C(=O)N[C@H](CCCNC(=N)N)C(=O)N[C@@H](CCC(=O)O)C(=O)N[C@H](CCCNC(=N)N)C(N)=O)cc(=O)oc2c1; assay: Km and kcat/Km of substrates with MMP-8; type: biochemical; conditions: other: substrate cleavage by MMP-8
[7] = tested on: COc1ccc2c(CC(=O)N[C@H](CCCNC(=N)N)C(=O)N3CCC[C@H]3C(=O)N[C@@H](CC(C)C)C(=O)NCC(=O)N[C@@H](CCCCOCc3ccccc3)C(=O)N[C@@H](CNc3ccc([N+](=O)[O-])cc3[N+](=O)[O-])C(=O)N[C@@H](C)C(=O)N[C@H](CCCNC(=N)N)C(=O)N[C@H](CCC(=O)O)C(=O)N[C@H](CCCNC(=N)N)C(N)=O)cc(=O)oc2c1; assay: Km and kcat/Km of substrates with MMP-8; type: biochemical; conditions: other: substrate cleavage by MMP-8
[8] = tested on: COc1ccc2c(CC(=O)N[C@@H](CCCNC(=N)N)C(=O)N3CCC[C@H]3C(=O)N[C@@H](CC(C)C)C(=O)NCC(=O)N[C@@H](CCCCOCc3ccccc3)C(=O)N[C@@H](CNc3ccc([N+](=O)[O-])cc3[N+](=O)[O-])C(=O)N[C@@H](C)C(=O)N[C@@H](CCCNC(=N)N)C(=O)N[C@@H](CCC(=O)O)C(=O)N[C@@H](CCCNC(=N)N)C(N)=O)cc(=O)oc2c1; assay: Km and kcat/Km of substrates with MMP-13; type: biochemical; conditions: other: substrate cleavage by MMP-13
[9] = tested on: COc1ccc2c(CC(=O)N[C@H](CCCNC(=N)N)C(=O)N3CCC[C@H]3C(=O)N[C@@H](CC(C)C)C(=O)NCC(=O)N[C@@H](CCCCOc3ccccc3)C(=O)N[C@@H](CNc3ccc([N+](=O)[O-])cc3[N+](=O)[O-])C(=O)N[C@@H](C)C(=O)N[C@H](CCCNC(=N)N)C(=O)N[C@H](CCC(=O)O)C(=O)N[C@H](CCCNC(=N)N)C(N)=O)cc(=O)oc2c1; assay: Km and kcat/Km of substrates with MMP-13; type: biochemical; conditions: other: substrate cleavage by MMP-13
[10] = tested on: COc1ccc2c(CC(=O)N[C@@H](CCCNC(=N)N)C(=O)N3CCC[C@@H]3C(=O)N[C@@H](CC(C)C)C(=O)NCC(=O)N[C@@H](CC(C)C)C(=O)N[C@H](CNc3ccc([N+](=O)[O-])cc3[N+](=O)[O-])C(=O)N[C@@H](C)C(=O)N[C@H](CCCNC(=N)N)C(=O)N[C@@H](CCC(=O)O)C(=O)N[C@H](CCCNC(=N)N)C(N)=O)cc(=O)oc2c1; assay: Km and kcat/Km of substrates with MMP-13; type: biochemical; conditions: other: substrate cleavage by MMP-13
[11] = tested on: COc1ccc2c(CC(=O)N[C@H](CCCNC(=N)N)C(=O)N3CCC[C@H]3C(=O)N[C@@H](CC(C)C)C(=O)NCC(=O)N[C@@H](CCCCOCc3ccccc3)C(=O)N[C@@H](CNc3ccc([N+](=O)[O-])cc3[N+](=O)[O-])C(=O)N[C@@H](C)C(=O)N[C@H](CCCNC(=N)N)C(=O)N[C@H](CCC(=O)O)C(=O)N[C@H](CCCNC(=N)N)C(N)=O)cc(=O)oc2c1; assay: Km and kcat/Km of substrates with MMP-13; type: biochemical; conditions: other: substrate cleavage by MMP-13
[12] = tested on: COc1ccc2c(CC(=O)N[C@@H](CCCNC(=N)N)C(=O)N3CCC[C@H]3C(=O)N[C@@H](CC(C)C)C(=O)NCC(=O)N[C@@H](CCCCOCc3ccccc3)C(=O)N[C@@H](CNc3ccc([N+](=O)[O-])cc3[N+](=O)[O-])C(=O)N[C@@H](C)C(=O)N[C@@H](CCCNC(=N)N)C(=O)N[C@@H](CCC(=O)O)C(=O)N[C@@H](CCCNC(=N)N)C(N)=O)cc(=O)oc2c1; assay: purified protein, by the assay type; conditions: other: substrate cleavage by MMP-14
[13] = tested on: COc1ccc2c(CC(=O)N[C@H](CCCNC(=N)N)C(=O)N3CCC[C@H]3C(=O)N[C@@H](CC(C)C)C(=O)NCC(=O)N[C@@H](CCCCOc3ccccc3)C(=O)N[C@@H](CNc3ccc([N+](=O)[O-])cc3[N+](=O)[O-])C(=O)N[C@@H](C)C(=O)N[C@H](CCCNC(=N)N)C(=O)N[C@H](CCC(=O)O)C(=O)N[C@H](CCCNC(=N)N)C(N)=O)cc(=O)oc2c1; assay: purified protein, by the assay type; conditions: other: substrate cleavage by MMP-14
[14] = tested on: COc1ccc2c(CC(=O)N[C@@H](CCCNC(=N)N)C(=O)N3CCC[C@@H]3C(=O)N[C@@H](CC(C)C)C(=O)NCC(=O)N[C@@H](CC(C)C)C(=O)N[C@H](CNc3ccc([N+](=O)[O-])cc3[N+](=O)[O-])C(=O)N[C@@H](C)C(=O)N[C@H](CCCNC(=N)N)C(=O)N[C@@H](CCC(=O)O)C(=O)N[C@H](CCCNC(=N)N)C(N)=O)cc(=O)oc2c1; assay: purified protein, by the assay type; conditions: other: substrate cleavage by MMP-14
[15] = tested on: COc1ccc2c(CC(=O)N[C@H](CCCNC(=N)N)C(=O)N3CCC[C@H]3C(=O)N[C@@H](CC(C)C)C(=O)NCC(=O)N[C@@H](CCCCOCc3ccccc3)C(=O)N[C@@H](CNc3ccc([N+](=O)[O-])cc3[N+](=O)[O-])C(=O)N[C@@H](C)C(=O)N[C@H](CCCNC(=N)N)C(=O)N[C@H](CCC(=O)O)C(=O)N[C@H](CCCNC(=N)N)C(N)=O)cc(=O)oc2c1; assay: purified protein, by the assay type; conditions: other: substrate cleavage by MMP-14

Sequence of MMP-3 (Homo sapiens) (chain, as listed by the source): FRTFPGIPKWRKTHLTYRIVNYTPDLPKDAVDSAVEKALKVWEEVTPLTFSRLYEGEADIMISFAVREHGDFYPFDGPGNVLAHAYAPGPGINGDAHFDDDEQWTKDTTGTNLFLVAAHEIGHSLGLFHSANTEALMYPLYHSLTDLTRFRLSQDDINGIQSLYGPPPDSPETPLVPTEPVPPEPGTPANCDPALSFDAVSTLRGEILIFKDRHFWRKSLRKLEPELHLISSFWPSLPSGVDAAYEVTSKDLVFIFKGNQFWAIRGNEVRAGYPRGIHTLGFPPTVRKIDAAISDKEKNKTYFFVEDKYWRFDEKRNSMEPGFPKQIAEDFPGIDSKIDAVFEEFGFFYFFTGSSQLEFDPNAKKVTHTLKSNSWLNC
Sequence of MMP-8 (Homo sapiens) (chain, as listed by the source): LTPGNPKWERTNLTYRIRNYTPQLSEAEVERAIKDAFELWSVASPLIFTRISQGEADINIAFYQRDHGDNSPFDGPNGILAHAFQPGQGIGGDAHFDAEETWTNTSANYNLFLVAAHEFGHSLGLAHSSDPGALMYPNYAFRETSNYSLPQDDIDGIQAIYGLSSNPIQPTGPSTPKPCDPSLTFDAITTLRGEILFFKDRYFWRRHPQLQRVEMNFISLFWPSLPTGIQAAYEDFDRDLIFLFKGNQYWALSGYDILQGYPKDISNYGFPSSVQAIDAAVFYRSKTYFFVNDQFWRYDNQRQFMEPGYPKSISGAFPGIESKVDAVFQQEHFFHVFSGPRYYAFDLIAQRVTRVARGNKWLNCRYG

## MMP-3 (Homo sapiens)
[1]
  Km: 85.9 µM
  kcat/Km: 0.48 M^−1s^−1×10^4
[2]
  Km: 14 µM
  kcat/Km: 0.63 M^−1s^−1×10^4
[3]
  Km: 28.9 µM
  kcat/Km: 0.16 M^−1s^−1×10^4

## MMP-8 (Homo sapiens)
[4]
  Km: 9.1 µM
  kcat/Km: 17.9 M^−1s^−1×10^4
[5]
  Km: 4.4 µM
  kcat/Km: 52.2 M^−1s^−1×10^4
[6]
  Km: 16.7 µM
  kcat/Km: 13.9 M^−1s^−1×10^4
[7]
  Km: 3.3 µM
  kcat/Km: 14.6 M^−1s^−1×10^4

## MMP-13 (Homo sapiens)
[8]
  Km: 0.9 µM
  kcat/Km: 424 M^−1s^−1×10^4
[9]
  Km: 1.2 µM
  kcat/Km: 293 M^−1s^−1×10^4
[10]
  Km: 9 µM
  kcat/Km: 29.6 M^−1s^−1×10^4
[11]
  Km: 1.5 µM
  kcat/Km: 158 M^−1s^−1×10^4

## MMP-14 (Homo sapiens)
[12]
  Km: 12 µM
  kcat/Km: 8.3 M^−1s^−1×10^4
[13]
  Km: 7.4 µM
  kcat/Km: 15.5 M^−1s^−1×10^4
[14]
  Km: 27.2 µM
  kcat/Km: 4.1 M^−1s^−1×10^4
[15]
  Km: 23.7 µM
  kcat/Km: 5.09 M^−1s^−1×10^4
